The experiment concerns the target the two scFvs (17-21-A01-sc01 and 17-21-A01-sc03). As to the kind of experiment: competition ELISA: IC50 of TNFβ relative to IC50 of TNFα on coated scFv. For orientation: An ELISA detects its analyte on a solid surface through an enzyme-linked reagent.

Some results are limits rather than exact numbers.

B1: recombinant human TNFβ (Peprotech, Cat. No. 300-01B) (ligand, UniProt P01374 35-205, looked up)
chain: LPGVGLTPSAAQTARQHPKMHLAHSTLKPAAHLIGDPSKQNSLLWRANTDRAFLQDGFSLSNNSLLVPTSGIYFVYSQVVFSGKAYSPKATSSPLYLAHEVQLFSSQYPFHVPLLSSQKMVYPGLQEPWLHSMYHGAAFQLTQGDQLSTHTDGIPHLVLSPSTVFFGAFAL
For B1, the selectivity for binding to TNFα over TNFβ was above 20000 fold.

Source of the values: patent US20190153089A1.
